Test results: US5683985, “Oligonucleotide decoys and methods relating thereto” (The Salk Institute for Biological Studies)

Assays:
JUN = JUN (UniProt P05412); settings: PS at 6 linkages within the Sp1 recognition octamer; K2PtCl4 crosslinking, SDS gel
CREB (CRE-BP) [1] = biological target: T1, CREB (CRE-BP) (UniProt P15337 P15337:1-327); test: EMSA; crosslinks with K2PtCl4 at ~40% of ligCRE(s)6 efficiency; settings: chain copies: 2; label: 32P; closed circular dumbbell
Method: For crosslinking of oligonucleotide to protein, approximately 0.015 pmole of the appropriate [^32P]-labelled dumbbell oligonucleotide was first incubated with 200 ng CREB or JUN protein in 10 μl of buffer containing 50 mM KCl, 15 mM Tris (pH 7.5), 0.1 mM EDTA, […], 180 ng acetylated BSA and 250 ng (poly[dI-dC]·poly[dI-dC]) as described above. After 15 minutes at room temperature, 1–3 μl of a freshly prepared solution containing the required amount of K_2PtCl_4 or transPt^II in buffer containing 1 mM phosphate (pH 7) and 0.1 mM EDTA was added to the reaction mixture. Incubation was continued at room temperature in the dark for 1 hour. 0.5 μl of a 5% solution of SDS was then added and the crosslinked product separated from non-crosslinked oligonucleotide on an 8% polyacrylamide gel using buffer containing 90 mM Tris-borate (pH 8.2) and 0.1% SDS (SDS gels disrupt noncovalently associated DNA-protein complexes).

CREB (CRE-BP) [2] = biological target: T1, CREB (CRE-BP); test: EMSA; does not bind CREB; crosslinking <10% of CRE at 2 mM K2PtCl4, none at 0.3 mM; settings: chain copies: 2; label: 32P; closed circular dumbbell
Method: (§1) Binding of the ligated CRE and CRE(s)_6 sequences to the CREB protein was carried out as previously described [Dwarki et al., EMBO J. 9:225–232 (1990); chu and Orgel, Nucleic Acids Res. 19:6958 (1991)]. Approximately 0.015 pmole of the [^32P]-CRE sequences was added to ~200 ng of pure CREB protein in 10 µl of buffer containing 50 mM KCl, 15 mM Tris, (pH 7.5), 0.1 mM EDTA, 0.5 mM DTT, 180 ng acetylated BSA and 250 ng (poly[dI-dC].poly[dI-dC]) and then incubated at room temperature for 15–20 minutes. Binding was detected by gel shift assay on 6% non-denaturing gels using 40 mM Tris-borate at pH 8.2 as the electrophoresis buffer. Binding of the ligated CRE sequences to an aliquot of nuclear extract from PC12 cells (4 μg total protein) was carried out in the same way. Binding of TRE sequences to the JUN protein was carried out similarly in 10 μl of buffer containing 50 mM Tris (pH 7.9), 100 mM KCl, 1 mM EDTA, 1 mM DTT, 12.5 mM MgCl_2, 20% glycerol and 250 ng (poly[dI-dC]·poly[dI-dC]). Binding was detected by non-denaturing gel electrophoresis on 6% acrylamide, using 20 mM Tris-borate (pH 8.2) as electrophoresis buffer. […]

CREB (CRE-BP) [3] = biological target: T1, CREB (CRE-BP); test: EMSA; 50 mM KCl, 15 mM Tris pH 7.5, room temperature; settings: chain copies: 2, label: 5'-32P
Method: (§2) Binding of the ligated CRE and CRE(s)_6 sequences to the CREB protein was carried out as previously described [Dwarki et al., EMBO J. 9:225–232 (1990); chu and Orgel, Nucleic Acids Res. 19:6958 (1991)]. Approximately 0.015 pmole of the [^32P]-CRE sequences was added to ~200 ng of pure CREB protein in 10 µl of buffer containing 50 mM KCl, 15 mM Tris, (pH 7.5), 0.1 mM EDTA, 0.5 mM DTT, 180 ng acetylated BSA and 250 ng (poly[dI-dC].poly[dI-dC]) and then incubated at room temperature for 15–20 minutes. Binding was detected by gel shift assay on 6% non-denaturing gels using 40 mM Tris-borate at pH 8.2 as the electrophoresis buffer. Binding of the ligated CRE sequences to an aliquot of nuclear extract from PC12 cells (4 μg total protein) was carried out in the same way. Binding of TRE sequences to the JUN protein was carried out similarly in 10 μl of buffer containing 50 mM Tris (pH 7.9), 100 mM KCl, 1 mM EDTA, 1 mM DTT, 12.5 mM MgCl_2, 20% glycerol and 250 ng (poly[dI-dC]·poly[dI-dC]). Binding was detected by non-denaturing gel electrophoresis on 6% acrylamide, using 20 mM Tris-borate (pH 8.2) as electrophoresis buffer.

CREB (CRE-BP) [4] = biological target: T1, CREB (CRE-BP); test: EMSA; bound more efficiently than the other oligomers; 50 mM KCl, pH 7.5; settings: chain copies: 2; label: 32P; closed circular dumbbell
Method: as §2

CREB (CRE-BP) [5] = biological target: T1, CREB (CRE-BP); test: EMSA; PS does not diminish binding; K2PtCl4 crosslinking 40-50% of binding at 2.3 mM; settings: chain copies: 2; label: 32P; closed circular dumbbell
Method: as §1

T1 sequence (P15337 whole entry, one chain of several): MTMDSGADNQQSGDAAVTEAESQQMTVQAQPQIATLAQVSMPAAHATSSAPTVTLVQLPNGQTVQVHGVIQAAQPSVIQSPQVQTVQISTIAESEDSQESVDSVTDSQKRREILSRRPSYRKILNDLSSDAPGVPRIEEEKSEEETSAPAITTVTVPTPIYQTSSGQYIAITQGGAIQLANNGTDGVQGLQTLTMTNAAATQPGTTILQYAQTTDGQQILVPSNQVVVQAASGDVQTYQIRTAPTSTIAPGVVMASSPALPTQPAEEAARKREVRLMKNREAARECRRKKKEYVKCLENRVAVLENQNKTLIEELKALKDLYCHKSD
Sequence of JUN (P05412 whole entry): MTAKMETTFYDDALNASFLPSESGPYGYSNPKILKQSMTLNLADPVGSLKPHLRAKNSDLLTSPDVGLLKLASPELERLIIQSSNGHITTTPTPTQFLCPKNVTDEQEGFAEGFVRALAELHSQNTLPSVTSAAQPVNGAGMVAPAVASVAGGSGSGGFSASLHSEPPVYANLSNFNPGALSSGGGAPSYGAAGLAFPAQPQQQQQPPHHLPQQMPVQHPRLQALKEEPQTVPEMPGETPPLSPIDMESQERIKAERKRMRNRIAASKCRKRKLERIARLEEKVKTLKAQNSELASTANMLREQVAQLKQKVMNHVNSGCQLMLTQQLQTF

CCTCTCGCTCGCCCCGCCCCGATCCTCTCGATCGGGGCGGGGCGAG [ligSp1(s)6 dumbbell]
binding signal (% of ligTRE(s)6 crosslinking) (JUN): < 10

ACTCTCTGTGTCTGACTCATGCTCTCTCAGCATGAGTCAGACAC (structured_DNA, PS at 6 linkages within the recognition sequence) [ligTRE(s)6 dumbbell]
binding signal (CREB (CRE-BP) [1]): ~0.1 fold of ligCRE(s)6

CCTCTCGCTCGCCCCGCCCCGATCCTCTCGATCGGGGCGGGGCGAG (structured_DNA, PS at 6 linkages within the Sp1 recognition octamer) [ligSp1(s)6 dumbbell]
binding result (CREB (CRE-BP) [2]): no binding

AAATTGACGTCATGGTAACTCTCTTACCATGACGTCAATTT (structured_DNA) [CRE 41-mer hairpin]
binding result (CREB (CRE-BP) [3]; hairpin with CTCTC loop): binds

GTAACTCTCTTACCATGACGTCAATTTCTCTCAAATTGACGTCATG (structured_DNA) [CRE 46-mer nicked dumbbell]
binding result (CREB (CRE-BP) [3]; nicked dumbbell): binds

GTAACTCTCTTACCATGACGTCAATTTCTCTCAAATTGACGTCATG (structured_DNA) [ligCRE dumbbell]
binding result (CREB (CRE-BP) [4]): binds

GTAACTCTCTTACCATGACGTCAATTTCTCTCAAATTGACGTCATG (structured_DNA, PS at 6 linkages within the octamer (T(s)GAC(s)GTC(s)A on both strands)) [ligCRE(s)6 dumbbell]
binding result (CREB (CRE-BP) [5]): binds

B1: CRE 18-mer duplex (dsDNA)
DNA 1: AAATTGACGTCATGGTAA
DNA 2: TTACCATGACGTCAATTT
binding result (CREB (CRE-BP) [3]): binds
